Assay results reported in the supplement of paper PMC10567573.

B1: HDAC6 (parent)
chain: ACAQLATGAACRLVEAVLSGEVLN
B2: SMG5 (parent)
chain: TRKLSPGKKRCKDIKRLLVNFMYL

Variants of: B1
Assay: protein stability index of a GFP-peptide fusion (GPS, HEK-293T) (PSI 1-6); higher = more stable
Conditions: c terminus: a fixed tail appended
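Further: lentivirally expressed fusions sorted by FACS into six bins by GFP to DsRed ratio, PSI derived from sequencing read proportions per bin multiplied by bin number.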

Protein stability index of substitutions, site by site:
A10: C 2.16; E 1.82; D 2.22; G 1.43
G8: C 2.74; M 1.28; S 1.94; T 3.69; D 2.67
T7: S 2.78; N 1.54; D 1.79; M 3.57
A9: I 3.52; R 3; K 2.23; G 1.69; D 2.61; N 1.09; W 2.99; P 2.4; Y 1.68; E 3.49
A3: W 2.17; F 3.94; S 4.04; N 1.68; D 2.88
C2: K 1.99; T 3.63; P 1.82; L 3.12; S 1.08; E 2; Q 2.97; D 2.98; N 1.21
A1: G 1; C 1.16; E 3.75; P 1.53; T 4.34; S 3.19; K 1.92
A6: C 2.49; Q 2.74; I 3.57; G 2.25; D 2.11; T 1.39; K 1.19; E 2.35; H 1; N 1.48
L5: P 2.2; I 1.51; G 2.42; Q 2.67; N 1.81; H 1.42; T 1.37; E 2.48; M 2.68; D 2.61; V 1.16
Q4: E 2.92; I 1.55; A 2.68; Y 4.38; K 2.69; P 1.04

Variants of: B2
Assay: as above
Conditions: c terminus: a fixed tail appended

Protein stability index, by site and new letter:
Y23: W 2.16; A 2.85; F 1.64; P 1.81; R 2.05; S 3.81; M 2.94; V 4.04; H 2.35; K 2.93; T 2.18; D 2.01; I 3.31
L18: T 1.65; E 2.16; S 1.88; M 3.27; R 1.68; P 2.48; G 2.35; H 1.6; F 2.21; V 2.52; Q 1.95; N 1.55; Y 2.5; C 1.52; K 1.54; A 1.41; D 1.76
M22: C 1.75; Q 1.34; Y 2.96; V 2.33; E 2.45; P 2.39; F 2.29; R 2.4; K 1.86; H 1.65; D 2.34; G 2.04; S 1.39; T 2.11; N 1.95
F21: Q 1.71; H 1.49; N 1.97; P 1.6; S 2.88; E 1.75; A 1.76; C 1.21; T 1.99; R 1.88; W 1.91; D 2.37; Y 1.76; G 1.63; K 2.12; I 3.19
C11: F 3.81; K 2; L 2.46; E 2.58; I 4.05; D 1.79; T 1.59; V 1.4; G 1.42; P 2.26; M 1.93; S 1.4; H 1.58; Q 1.39; W 3.27; A 3.02; Y 1.91
D13: L 2.93; V 3.74; Q 3.52; N 1.5; I 3.25; C 1.84; P 2.62; A 2.75; R 1.71; Y 1.79; M 2.54; T 3.66; S 2.42; K 2.07
G7: E 1.97; S 2.17; T 2.22; I 2.87
